Assay results from patent publication US20250339554A1 (BROAD INSTITUTE, published 2025).

How the values were obtained:
[1] = target: the molecule itself; experiment: electron microscopy; self-assembly
[2] = target: the molecule itself; experiment: size-exclusion chromatography of purified PNMA1; self-assembly
[3] = target: the molecule itself; experiment: SEC, iodixanol gradient and TEM of particles from HEK293 supernatant; self-assembly into capsids
[4] = target: the molecule itself; experiment: TEM of capsids purified from E. coli; self-assembly

B1: PNMA7A (other)
chain: MASIIARVGNSRRLNAPLPPWAHSMLRSLGRSLGPIMASMADRNMKLFSGRVVPAQGEETFENWLTQVNGVLPDWNMSEEEKLKRLMKTLRGPAREVMRVLQATNPNLSVADFLRAMKLVFGESESSVTAHGKFFNTLQAQGEKASLYVIRLEVQLQNAIQAGIIAEKDANRTRLQQLLLGGELSRDLRLRLKDFLRMYANEQERLPNFLELIRMVREEEDWDDAFIKRKRPKRSESMVERAVSPVAFQGSPPIVIGSADCNVIEIDDTLDDSDEDVILVESQDPPLPSWGAPPLRDRARPQDEVLVIDSPHNSRAQFPSTSGGSGYKNNGPGEMRRARKRKHTIRCSYCGEEGHSKETCDNESDKAQVFENLIITLQELTHTEMERSRVAPGEYNDFSEPL
notes: also called ZCCHC12
binding result [1]: binds

B2: PNMA1 (other)
chain: MAMTLLEDWCRGMDVNSQRALLVWGIPVNCDEAEIEETLQAAMPQVSYRMLGRMFWREENAKAALLELTGAVDYAAIPREMPGKGGVWKVLFKPPTSDAEFLERLHLFLAREGWTVQDVARVLGFQNPTPTPGPEMPAEMLNYILDNVIQPLVESIWYKRLTLFSGRDIPGPGEETFDPWLEHTNEVLEEWQVSDVEKRRRLMESLRGPAADVIRILKSNNPAITTAECLKALEQVFGSVESSRDAQIKFLNTYQNPGEKLSAYVIRLEPLLQKVVEKGAIDKDNVNQARLEQVIAGANHSGAIRRQLWLTGAGEGPAPNLFQLLVQIREEEAKEEEEEAEATLLQLGLEGHF
notes: Self-assembling capsid protein
binding result [2]: binds

B3: PNMA2 (other)
chain: MALALLEDWCRIMSVDEQKSLMVTGIPADFEEAEIQEVLQETLKSLGRYRLLGKIFRKQENANAVLLELLEDTDVSAIPSEVQGKGGVWKVIFKTPNQDTEFLERLNLFLEKEGQTVSGMFRALGQEGVSPATVPCISPELLAHLLGQAMAHAPQPLLPMRYRKLRVFSGSAVPAPEEESFEVWLEQATEIVKEWPVTEAEKKRWLAESLRGPALDLMHIVQADNPSISVEECLEAFKQVFGSLESRRTAQVRYLKTYQEEGEKVSAYVLRLETLLRRAVEKRAIPRRIADQVRLEQVMAGATLNQMLWCRLRELKDQGPPPSFLELMKVIREEEEEEASFENESIEEPEERDGYGRWNHEGDD
notes: Self-assembling capsid protein; It was tested as particles from HEK293 supernatant (HA-tag pulldown) and as monomers and capsids assembled in vitro
binding result [3]: binds

B4: PNMA6A (other)
chain: MAVTMLQDWCRWMGVNARRGLLILGIPEDCDDAEFQESLEAALRPMGHFTVLGKAFREEDNATAALVELDREVNYALVPREIPGTGGPWNVVFVPRCSGEEFLGLGRVFHFPEQEGQMVESVAGALGVGLRRVCWLRSIGQAVQPWVEAVRCQSLGVFSGRDQPAPGEESFEVWLDHTTEMLHVWQGVSERERRRRLLEGLRGTALQLVHALLAENPARTAQDCLAALAQVFGDNESQATIRVKCLTAQQQSGERLSAFVLRLEVLLQKAMEKEALARASADRVRLRQMLTRAHLTEPLDEALRKLRMAGRSPSFLEMLGLVRESEAWEASLARSVRAQTQEGAGARAGAQAVARASTKVEAVPGGPGREPEGLLQAGGQEAEELLQEGLKPVLEECDN
binding result [1]: binds

B5: PNMA5 (other)
chain: MALTLLEDWCKGMDMDPRKALLIVGIPMECSEVEIQDTVKAGLQPLCAYRVLGRMFRREDNAKAVFIELADTVNYTTLPSHIPGKGGSWEVVVKPRNPDDEFLSRLNYFLKDEGRSMTDVARALGCCSLPAESLDAEVMPQVRSPPLEPPKESMWYRKLKVFSGTASPSPGEETFEDWLEQVTEIMPIWQVSEVEKRRRLLESLRGPALSIMRVLQANNDSITVEQCLDALKQIFGDKEDFRASQFRFLQTSPKIGEKVSTFLLRLEPLLQKAVHKSPLSVRSTDMIRLKHLLARVAMTPALRGKLELLDQRGCPPNFLELMKLIRDEEEWENTEAVMKNKEKPSGRGRGASGRQARAEASVSAPQATVQARSFSDSSPQTIQGGLPPLVKRRRLLGSESTRGEDHGQATYPKAENQTPGREGPQAAGEELGNEAGAGAMSHPKPWET
notes: Capsids were purified from E. coli
binding result [4]: binds

B6: PNMA7B (other)
chain: MASITACVGNSRQQNAPLPPWAHSMLRSLGRSLCPLVVKMAERNMKLFSGRVVPAQGKETFENWLIQVNEVLPDWSMSEEEKLKRLMKTLRGPAREVMRLLQAANPNLSVADFLRAMKLVFGESESSVTAHGKFFNTLQAQGEKASLYVIRLEVQLQNAIQAGILAEKDANQTRLQQLLLGAELNRDLRFRLKHLLRMYANKQERLPNFLELIKMIREEEDWDDAFIKRKRPKRSEPIMERAASPVAFQGAQPIAISSADCNCNVIEIDDTLDDSDEDVILVVSLYPSLTPTGAPPFRGRARPLDQVLVIDSPNNSGAQSLSTSGGSGYKNDGPGNIRRARKRKYTTRCSYCGEEGHSKETCDNESNKAQVFENLIITLQELTHTEERSKEVPGEHSDASEPQ
notes: Capsids were purified from E. coli; also called ZCCHC18
binding result [4]: binds
